# According to publication PMC2064205 (The Journal of Cell Biology, 2007):
# T1: HA3-Ard1 (human, UniProt P41227 1-235)
# T1 sequence: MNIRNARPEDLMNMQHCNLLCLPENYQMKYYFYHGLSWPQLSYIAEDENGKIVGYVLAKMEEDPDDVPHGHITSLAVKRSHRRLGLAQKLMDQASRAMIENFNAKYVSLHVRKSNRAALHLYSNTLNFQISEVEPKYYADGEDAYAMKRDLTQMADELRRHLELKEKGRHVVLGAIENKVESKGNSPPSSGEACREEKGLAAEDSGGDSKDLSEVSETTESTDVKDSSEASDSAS
# T2: HA3-San (human, UniProt Q9GZZ1 1-169)
# T2 sequence: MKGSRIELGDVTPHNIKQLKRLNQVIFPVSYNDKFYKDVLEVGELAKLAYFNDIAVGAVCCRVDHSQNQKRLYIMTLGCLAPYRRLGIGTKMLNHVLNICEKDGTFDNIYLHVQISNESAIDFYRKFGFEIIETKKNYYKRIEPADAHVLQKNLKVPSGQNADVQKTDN
# B1: San (endogenous) (natural protein)
# chain: T2 sequence
# B2: NatH (endogenous) (natural protein)
# chain: MPAVSLPPKENALFKRILRCYEHKQYRNGLKFCKQILSNPKFAEHGETLAMKGLTLNCLGKKEEAYELVRRGLRNDLKSHVCWHVYGLLQRSDKKYDEAIKCYRNALKWDKDNLQILRDLSLLQIQMRDLEGYRETRYQLLQLRPAQRASWIGYAIAYHLLEDYEMAAKILEEFRKTQQTSPDKVDYEYSELLLYQNQVLREAGLYREALEHLCTYEKQICDKLAVEETKGELLLQLCRLEDAADVYRGLQERNPENWAYYKGLEKALKPANMLERLKIYEEAWTKYPRGLVPRRLPLNFLSGEKFKECLDKFLRMNFSKGCPPVFNTLRSLYKDKEKVAIIEELVVGYETSLKSCRLFNPNDDGKEEPPTTLLWVQYYLAQHYDKIGQPSIALEYINTAIESTPTLIELFLVKAKIYKHAGNIKEAARWMDEAQALDTADRFINSKCAKYMLKANLIKEAEEMCSKFTREGTSAVENLNEMQCMWFQTECAQAYKAMNKFGEALKKCHEIERHFIEITDDQFDFHTYCMRKITLRSYVDLLKLEDVLRQHPFYFKAARIAIEIYLKLHDNPLTDENKEHEADTANMSDKELKKLRNKQRRAQKKAQIEEEKKNAEKEKQQRNQKKKKDDDDEEIGGPKEELIPEKLAKVETPLEEAIKFLTPLKNLVKNKIETHLFAFEIYFRKEKFLLMLQSVKRAFAIDSSHPWLHECMIRLFNTAVCESKDLSDTVRTVLKQEMNRLFGATNPKNFNETFLKRNSDSLPHRLSAAKMVYYLDPSSQKRAIELATTLDESLTNRNLQTCMEVLEALYDGSLGDCKEAAEIYRANCHKLFPYALAFMPPGYEEDMKITVNGDSSAEAEELANEI
# B3: Ard1 (endogenous) (natural protein)
# chain: T1 sequence
# How the values were obtained:
# HA3-Ard1 = biological target: T1, HA3-Ard1; assay: co-IP
# HA3-San = biological target: T2, HA3-San; assay: co-IP
binder,measurement,setting,value
B1,percent of input pulled down,HA3-Ard1,< 10 % of input
B2,percent of input pulled down,HA3-San,> 10 % of input
B3,percent of input pulled down,HA3-San,> 10 % of input
